# Data published in patent US5461032.
# Target: voltage-sensitive sodium channel of nerve membrane (house fly, Musca domestica, third instar larvae) (Musca domestica)
substance,measurement,value
toxin 4 of the scorpion Leiurus quinquestriatus (peptide),activity of insect peripheral nerve preparations,> 500 nM
